This is an account of results in patent US20240425569A1 (VISTERRA, published 2024).

In experiment [1] the target is T1, EDIII-DV3 (E protein domain III of dengue virus serotype DV-3) (dengue virus serotype DV-3, UniProt P27915 571-678).
T1 construct: also called DENV-3; EDIII of DV-3

Experiment [2] deals with T2, EDIII-DV2 (E protein domain III of dengue virus serotype DV-2) (dengue virus serotype DV-2, UniProt P14337 573-677).
T2 construct: also called DENV-2; EDIII of DV-2

Experiment [3] deals with T3, EDIII-DV4 (E protein domain III of dengue virus serotype DV-4) (dengue virus serotype DV-4, UniProt P09866 572-679).
T3 construct: also called DENV-4

In experiment [4] the target is T4, EDIII-DV1 (E protein domain III of dengue virus serotype DV-1) (dengue virus serotype DV-1, UniProt P17763 573-680).
T4 construct: also called DENV-1; EDIII of DV-1
T4 chain: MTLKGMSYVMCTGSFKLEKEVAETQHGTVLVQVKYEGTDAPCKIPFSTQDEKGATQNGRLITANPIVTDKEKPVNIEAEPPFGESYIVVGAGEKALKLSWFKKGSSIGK

Experiment [5] addresses T3, EDIII-DV4 (E protein domain III of …). The experiment in a line: affinity for EDIII, table of FIG. 4; method not stated.
Experiment [6] has the same target. This is another data set of the same source.
The target in experiment [7] is T5, Nicaragua/2010 (serotype III EDIII).
T5 construct: also called ED3-DV3/Nicaragua10; DENV-3 Nic
T5 E protein domain III (EDIII): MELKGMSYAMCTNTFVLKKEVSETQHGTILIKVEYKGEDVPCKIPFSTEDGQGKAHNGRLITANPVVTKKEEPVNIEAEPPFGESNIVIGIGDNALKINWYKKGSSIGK

Experiment [8] has as its target ED3-DV4/H241/Phil56 (EDIII of DENV-4 strain H241) (dengue virus serotype DENV-4, strain …, UniProt Q58HT7 572-679). The experiment in a line: Kd table, method not stated; Ag DENV-4 Phil.
The target in experiment [9] is T6, Peru/1995 (serotype II EDIII).
T6 construct: also called ED3-DV2/Peru95; DENV-2 Peru
The experiment in a line: Kd table, method not stated; Ag DENV-2 Peru.

Experiment [10] addresses T7, Philippines/1956 (H87)* (serotype III EDIII) (Dengue virus 3).
T7 construct: isolated EDIII protein

Experiment [11] addresses T1, EDIII-DV3 (E protein domain III of …). The source holds these as a separate data set.
The target in experiment [12] is T3, EDIII-DV4 (E protein domain III of …). This is another data set of the same source.
For experiment [13] the target is unchanged. The experiment in a line: competition ELISA; column 'EDIII-DV4'. A general note: An ELISA detects its analyte on a solid surface through an enzyme-linked reagent.
The target of experiment [14] is T8, Mexico/1977 (BC287/97)* (serotype IV EDIII) (Dengue virus 4).
T8 construct: isolated EDIII protein; also called EDIII of DENV-4 Mexico/1997 (BC287/97); DENV-4 BC2
The experiment in a line: Kd table, method not stated; Ag DENV-4 BC2.

Experiment [15] has as its target T9, New Guinea/1944 (NGC)* (serotype II EDIII) (Dengue virus 2).
T9 construct: isolated EDIII protein; also called EDIII of DENV-2 NGC
The experiment in a line: Kd table, method not stated; Ag DENV-2 NGC.

The target in experiment [16] is T3, EDIII-DV4 (E protein domain III of …). This is another data set of the same source.
Experiment [17] addresses T10, New Caledonia/2009 (serotype IV EDIII).
T10 construct: also called ED3-DV4/NewCal09; DENV-4 NC
T10 E protein domain III (EDIII): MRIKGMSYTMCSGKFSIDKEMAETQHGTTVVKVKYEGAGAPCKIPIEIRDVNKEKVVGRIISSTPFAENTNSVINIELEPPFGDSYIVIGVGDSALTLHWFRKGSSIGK
The experiment in a line: Kd table, method not stated; Ag DENV-4 NC.

In experiment [18] the target is T1, EDIII-DV3 (E protein domain III of …). The experiment in a line: competition ELISA.
Experiment [19] concerns the target T2, EDIII-DV2 (E protein domain III of …). Kind of experiment: competition ELISA.
Experiment [20] has as its target T4, EDIII-DV1 (E protein domain III of …). Kind of experiment: competition ELISA.
For experiment [21] the target is unchanged. The experiment in a line: SPR (FIG. 9), by context.
Experiment [22] addresses T11, Singapore/2010 (serotype IV EDIII).
T11 construct: also called ED3-DV4/Sing10; DENV-4 Sing
T11 E protein domain III (EDIII): T10 E protein domain III (EDIII) with I44V, I74T
Kind of experiment: Kd table, method not stated; Ag DENV-4 Sing.

In experiment [23] the target is T3, EDIII-DV4 (E protein domain III of …). Kind of experiment: competition ELISA; column 'EDIII-DV4 [1/7]'.
Experiment [24] concerns the target T12, Singapore/2008 (serotype II EDIII).
T12 construct: also called ED3-DV2/Sing08; DENV-2 Sing
Kind of experiment: Kd table, method not stated; Ag DENV-2 Sing.

Experiment [25] concerns the target T13, Singapore/2009 (serotype III EDIII).
T13 construct: also called ED3-DV3/Sing09; DENV-3 Sing
T13 E protein domain III (EDIII): T5 E protein domain III (EDIII) with T12Q, T14A, V40A, N94K

Numbering of substitutions follows the chain as printed. In names and notes the source's numbering stands. Like-named read-outs stand apart in the source and are kept apart here.

B1: antibody B48+A98V (antibody, V domains shown)
VH: QVQLVQSGAEVKKPGASVKVSCKAGFNIKDTYMSWVRQAPEQGLEWMGRIDPENGDTKYDPKLQGRVTMTADTSTNTAYMELRSLRSDDTAVYYCVRGWEGFAYWGQGTLVTVSS
VL: DIVMTQSPASLAVSLGERATISCRASENVDKYGNSFMHWYQQKPGQPPKLLIYRASELQWGVPDRFSGSGSGTDFTLTISSLQAEDVAVYYCQRSNEVPWTFGQGTKLEIK
The term Kd denotes the concentration at which binding is half-saturated. Low values mean tighter binding, high ones weaker binding. On to B1, for which the Kd was 5.06 nM in experiment [1], less than 0.1 nM in experiment [2], 9.26 nM in [3] and less than 0.1 nM in experiment [4]. Besides, in experiment [5], the “fold improvement in binding relative to antibody B48” value is approximately 5 fold.

B2: antibody C88 (antibody, V domains shown)
VH: QVQLVQSGAEVKKPGASVKVSCKASGFNIKDVYMSWVRQAPEQGLEWMGRIDPENGDTKYDPKLQGRVTMTADTSTNTAYMELRSLRSDDTAVYYCARGWEGFAYWGQGTLVTVSS
VL: B1 VL
In the case of B2, the Kd in [6] was found to be 13 nM; in experiment [7], 3.2 nM; in experiment [8], 234 nM; in experiment [9], 0.38 nM; in [10], 1.5 nM; in experiment [11] it was 0.97 nM. In addition, the Kd in experiment [12] was 23.8 nM; in experiment [13], 15.4 nM; in experiment [14], 10.6 nM; in [15], less than 0.1 nM; in experiment [16] it was 13 nM; in experiment [17] it was 11.3 nM. Besides, the Kd in experiment [18] was 1.06 nM; in [19], less than 0.1 nM; in experiment [20], less than 0.1 nM; in experiment [22] it was 15 nM; in [23], 13 nM; in experiment [24], less than 0.1 nM. Binding in experiment [25] was put at a Kd of 1 nM. For the same molecule, the “fold greater affinity than C98” value in experiment [21] was approximately 20 fold.
